Values quoted from earlier work in patent publication US20200276303A1, “Combination Therapies and Uses for Treatment of Demyelinating Disorders” (Biogen MA Inc., priority 2012, published 2020).

Settings: for Disease activity measured by brain lesions (MRI scans) and relapse rate compared to placebo: Phase 2 clinical studies in relapse remitting MS

Molecule	Disease activity measured by brain lesions (MRI scans) and relapse rate compared to placebo	further results
rituximab: antibody against CD20	statistically significant reduction	
ocrelizumab: antibody against CD20	statistically significant reduction	
alemtuzumab: antibody against CD52		Phase III studies comparing with Rebif (high-dose subcutaneous interferon beta-1a) (patients with relapsing-remitting MS (RRMS)): positive results
Daclizumab: therapeutic humanized monoclonal antibody to the alpha subunit of the IL-2 receptor of T cells (antibody, chains of the INN, looked up, V domains shown) VH: QVQLVQSGAEVKKPGSSVKVSCKASGYTFTSYRMHWVRQAPGQGLEWIGYINPSTGYTEYNQKFKDKATITADESTNTAYMELSSLRSEDTAVYYCARGGGVFDYWGQGTLVTVSS VL: DIQMTQSPSTLSASVGDRVTITCSASSSISYMHWYQQKPGKAPKLLIYTTSNLASGVPARFSGSGSGTEFTLTISSLQPDDFATYYCHQRSTYPLTFGQGTKVEVK		Reducing lesions and improving clinical scores (patients with multiple sclerosis not controlled with interferon): effective
